The values below come from US9290794B2, “Mutant protease biosensors with enhanced detection characteristics” (PROMEGA CORPORATION, priority 2010, dated 2016).

This data set deals with caspase-3. Put plainly: CBS variants transiently transfected in HEK293 cells, kinetic luminescence response to TRAIL treatment. The format is cell-based. The note with it: for RESPONSE, IMPROVEMENT OVER TL-CP358-DEVD:DD: ratio of INDUCED to BASAL; for BASAL, IMPROVEMENT OVER TL-CP358-DEVD:DD: time (0); for greater RESPONSE compared with TL-CP358-DEVD:DD: live cells (FIGS. 2, 3). The text has this: The Caspase-3 BioSensor (CBS) is a thermostable Photuris pennsylvanica luciferase (TL), circularly-permuted (CP) at amino acid 358, with a caspase-3 recognition site, i.e., one containing the caspase-3 recognition site comprising amino acids DEVD, at the junction between the TL fragments. The specific CBS that was used as the starting template is termed TL-CP358-DEVD:DD. The amino acid sequence of this CBS can be represented as: M/TL residues 358-544/SDEVDGSL/TL residues 4-354/V (SEQ ID NO:6). The amino acid positions in the CP TL correlate to those of the non-CP TL sequence (provided in the attached appendix). Upon treatment with caspase-3, CBS is cleaved at the recognition site allowing the two TL fragments to form a more favorable, higher activity, conformation.
The utility of CBS is the differential activity before and after cleavage by caspase-3. The basal activity of CBS is defined as the activity at assay time (O), before caspase-3 has had time to cleave at the recognition site. The induced activity is defined as the activity at some later time (t) after CBS has been cleaved by caspase-3. The response or fold increase in activity, is the ratio of induced to basal activity. Substitutions in TL-CP358-DEVD:DD were generated to develop CBS variants with enhanced responsivity to induction using the error-prone, mutagenic PCR-based system GeneMorph II (Stratagene; Daugherty, PNAS USA 97(5):2029 (2000)), according to manufacturer's instructions.
The resulting library was expressed in E. coli and screened for luciferase activity with and without pre-treatment with recombinant caspase-3 (data not shown). CBS variants having the best signal and response characteristics were then evaluated in HEK293 cells by kinetic assay measuring the response to TNF-α-related apoptosis inducing ligand (TRAIL) treatment (Wiley, S. R. et al., Immunity 3:673 (1995); Niles, A. L. et al., Meth. Mol. Biol. 414:137 (2008)). TRAIL induces apoptosis via activation of the death receptor to form active caspase-8, which in turn activates procaspase 3 to produce caspase-3. The appearance of active caspase-3 should be accompanied by an increase in luminescence as the CBS variants are cleaved and activated. Briefly, HEK293 cells, plated at 15,000 cells/well in a 96-well plate, were transiently transfected using TransIT-LTI (Mires Bio) with plasmid DNAs encoding various CBS variants with amino acid substitutions in TL-CP358-DEVD:DD. The same plasmids also carried a gene for constitutive expression of Renilla luciferase to act as a transfection control. Cells were pretreated with 2 mM luciferin for 2 hrs at 37° C. Cells were treated with 1 μg/mL TRAIL and assayed for 10 hrs at 37° C. Luminescence was monitored continuously over time (Luminometer: Varioskan Flash (Thermo) 1 sec integration time). Cells in replicate wells were lysed, at the time of TRAIL addition, i.e., time (0) and Renilla luciferase activity was measured. All biosensor data was then normalized for transfection efficiency using Renilla luciferase luminescence (Dual-GloAssay System; Promega Corporation).
Table 1 lists the variants of TL-CP358-DEVD:DD, identified by clone name, showing improved response to TRAIL treatment. Improvements listed in Table 1 are normalized to the parental TL-CP358-DEVD:DD CBS. “BASAL” represents the normalized biosensor luminescence at TRAIL addition, i.e., time (0), “INDUCED” represents the normalized biosensor luminescence at roughly 10 hrs after TRAIL addition, and “RESPONSE” represents the fold-induction, i.e., the ratio of INDUCED to BASAL activity.
Additional CBS variants were generated using the oligo-based site-directed mutagenesis kit Quik Change (Stratagene; Kunkel, PNAS USA 82(2):488 (1985)), according to the manufacturer's instructions. […]

[1] abbreviates: Table 2 combination variants, roughly 10 hrs after TRAIL, HEK293.
[2] abbreviates: Table 2 combination variants, HEK293 as in Example I.

B1: 01:A-05: CBS variant of TL-CP358-DEVD:DD, 507TI (SEQ ID NOs:7 and 8) (protein)
chain: MPGSTGKIVPLHAVKVVDPTTGKILGPNEPGELYFKGPMIMKGYYNNEEATKAIIDNDGWLRSGDIAYYDNDGHFYIVDRLKSLIKYKGYQVAPAEIEGILLQHPYIVDAGVTGIPDEAAGELPAAGVVVQTGKYLNEQIVQDYVASQVSIAKWLRGGVKFLDEIPKGSTGKIDRKVLRQMLEKHTNGSDEVDGSLKNILYGPEPFYPLEDGTAGEQMFDALSRYAAIPGCIALTNAHTKENVLYEEFLKLSCRLAESFKKYGLKQNDTIAVCSENSLQFFLPVIASLYLGIIVAPVNDKYIERELIHSLGIVKPRIVFCSKNTFQKVLNVKSKLKSIETIIILDLNEDLGGYQCLNNFISQNSDSNLDVKKFKPYSFNRDDQVASIMFSSGTTGLPKGVMLTHKNIVARFSIAKDPTFGNAINPTSAILTVIPFHHGFGMMTTLGYFTCGFRVVLMHTFEEKLFLQSLQDYKVESTLLVPTLMAFLAKSALVEKYDLSHLKEIASGGAPLSKEIGEMVKKRFKLNFVRQGYGLTETTSAVLITPKGV
As to B1, the “RESPONSE, IMPROVEMENT OVER TL-CP358-DEVD:DD” value (Table 1, fold-induction, normalized to parental) is 3.6 fold. In addition, for the setting “Table 1, normalized biosensor luminescence at TRAIL addition, HEK293, normalized to parental”, the “BASAL, IMPROVEMENT OVER TL-CP358-DEVD:DD” value is listed as 0.2 fold. The “INDUCED, IMPROVEMENT OVER TL-CP358-DEVD:DD” value (Table 1, normalized luminescence roughly 10 hrs after 1 μg/mL TRAIL, HEK293, normalized to parental) came to 0.6 fold. The “greater RESPONSE compared with TL-CP358-DEVD:DD” value (after 2 hrs TRAIL treatment) was found to be 2 times and the “greater RESPONSE compared with TL-CP358-DEVD:DD” value (after 10 hrs TRAIL treatment) was “about 4.8 times”.

B2: FC7: 24: CBS variant, 193SP 471IT 503SG 507TI (SEQ ID NOs:9 and 10) (protein)
chain: MPGSTGKIVPLHAVKVVDPTTGKILGPNEPGELYFKGPMIMKGYYNNEEATKAIIDNDGWLRSGDIAYYDNDGHFYIVDRLKSLIKYKGYQVAPAEIEGILLQHPYIVDAGVTGTPDEAAGELPAAGVVVQTGKYLNEQIVQDYVAGQVSIAKWLRGGVKFLDEIPKGSTGKIDRKVLRQMLEKHTNGSDEVDGSLKNILYGPEPFYPLEDGTAGEQMFDALSRYAAIPGCIALTNAHTKENVLYEEFLKLSCRLAESFKKYGLKQNDTIAVCSENSLQFFLPVIASLYLGIIVAPVNDKYIERELIHSLGIVKPRIVFCSKNTFQKVLNVKSKLKSIETIIILDLNEDLGGYQCLNNFISQNSDSNLDVKKFKPYSFNRDDQVAPIMFSSGTTGLPKGVMLTHKNIVARFSIAKDPTFGNAINPTSAILTVIPFHHGFGMMTTLGYFTCGFRVVLMHTFEEKLFLQSLQDYKVESTLLVPTLMAFLAKSALVEKYDLSHLKEIASGGAPLSKEIGEMVKKRFKLNFVRQGYGLTETTSAVLITPKGV
Turning to B2, for the setting “Table 2 combination variants”, the “RESPONSE, IMPROVEMENT OVER TL-CP358-DEVD:DD” value is 5.480 fold. Moreover, the “INDUCED, IMPROVEMENT OVER TL-CP358-DEVD:DD” value under setting [1] is 0.191 fold. The “BASAL, IMPROVEMENT OVER TL-CP358-DEVD:DD” value under setting [2] stood at 0.035 fold. For the same molecule, the “greater RESPONSE compared with TL-CP358-DEVD:DD” value (after 2 hrs TRAIL treatment) is “about 2 times”.

B3: FC7: 43: CBS variant, 471IT 503SG 507TI (SEQ ID NOs:11 and 12) (protein)
chain: MPGSTGKIVPLHAVKVVDPTTGKILGPNEPGELYFKGPMIMKGYYNNEEATKAIIDNDGWLRSGDIAYYDNDGHFYIVDRLKSLIKYKGYQVAPAEIEGILLQHPYIVDAGVTGTPDEAAGELPAAGVVVQTGKYLNEQIVQDYVAGQVSIAKWLRGGVKFLDEIPKGSTGKIDRKVLRQMLEKHTNGSDEVDGSLKNILYGPEPFYPLEDGTAGEQMFDALSRYAAIPGCIALTNAHTKENVLYEEFLKLSCRLAESFKKYGLKQNDTIAVCSENSLQFFLPVIASLYLGIIVAPVNDKYIERELIHSLGIVKPRIVFCSKNTFQKVLNVKSKLKSIETIIILDLNEDLGGYQCLNNFISQNSDSNLDVKKFKPYSFNRDDQVASIMFSSGTTGLPKGVMLTHKNIVARFSIAKDPTFGNAINPTSAILTVIPFHHGFGMMTTLGYFTCGFRVVLMHTFEEKLFLQSLQDYKVESTLLVPTLMAFLAKSALVEKYDLSHLKEIASGGAPLSKEIGEMVKKRFKLNFVRQGYGLTETTSAVLITPKGV
On to B3, for which the “RESPONSE, IMPROVEMENT OVER TL-CP358-DEVD:DD” value (Table 2 combination variants) is on record as 6.735 fold. Further, under setting [1], the “INDUCED, IMPROVEMENT OVER TL-CP358-DEVD:DD” value is recorded as 0.189 fold. Also, the “BASAL, IMPROVEMENT OVER TL-CP358-DEVD:DD” value under setting [2] was found to be 0.028 fold. Moreover, the “greater RESPONSE compared with TL-CP358-DEVD:DD” value (after 10 hrs TRAIL treatment) was “about 2.2 times”.

B4: FC7: 49: CBS variant, 193SP 503SG 507TI (SEQ ID NOs:13 and 14) (protein)
chain: MPGSTGKIVPLHAVKVVDPTTGKILGPNEPGELYFKGPMIMKGYYNNEEATKAIIDNDGWLRSGDIAYYDNDGHFYIVDRLKSLIKYKGYQVAPAEIEGILLQHPYIVDAGVTGIPDEAAGELPAAGVVVQTGKYLNEQIVQDYVAGQVSIAKWLRGGVKFLDEIPKGSTGKIDRKVLRQMLEKHTNGSDEVDGSLKNILYGPEPFYPLEDGTAGEQMFDALSRYAAIPGCIALTNAHTKENVLYEEFLKLSCRLAESFKKYGLKQNDTIAVCSENSLQFFLPVIASLYLGIIVAPVNDKYIERELIHSLGIVKPRIVFCSKNTFQKVLNVKSKLKSIETIIILDLNEDLGGYQCLNNFISQNSDSNLDVKKFKPYSFNRDDQVAPIMFSSGTTGLPKGVMLTHKNIVARFSIAKDPTFGNAINPTSAILTVIPFHHGFGMMTTLGYFTCGFRVVLMHTFEEKLFLQSLQDYKVESTLLVPTLMAFLAKSALVEKYDLSHLKEIASGGAPLSKEIGEMVKKRFKLNFVRQGYGLTETTSAVLITPKGV
As to B4, the “RESPONSE, IMPROVEMENT OVER TL-CP358-DEVD:DD” value (Table 2 combination variants) was 5.115 fold. Besides, the “INDUCED, IMPROVEMENT OVER TL-CP358-DEVD:DD” value under setting [1] came out at 0.852 fold. The “BASAL, IMPROVEMENT OVER TL-CP358-DEVD:DD” value under setting [2] was 0.167 fold. For the same molecule, where the note is “after 2 hrs TRAIL treatment”, the “greater RESPONSE compared with TL-CP358-DEVD:DD” value is recorded as “about 2 times”.
